For assay [1], the target named is Sox2 N-terminal domain and DBD (N-DBD). The experiment in a line: NMR; residue Ala 287. The note with it: domain or fragment; Limits are not printed. They are inferred from the C-IDR label position 120, the +9/-9 charge count, and 180 observable HSQC peaks (198 residues minus 17 Pro and the N-terminal residue). The NMR sample was 15N-labelled or unlabelled. The His6-SUMO tag was removed. The smFRET version carries dyes at 120 and 265. Limits are not printed. They are inferred from 109 expected HSQC peaks (119 residues m); modification not given.
Sox2 N-terminal domain and DBD (N-DBD), sequence (chain, as listed by the source): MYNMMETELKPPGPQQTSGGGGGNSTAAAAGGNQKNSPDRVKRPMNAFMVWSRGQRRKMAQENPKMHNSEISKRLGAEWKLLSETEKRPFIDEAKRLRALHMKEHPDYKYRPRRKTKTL

Assay [2] shares this target. The experiment in a line: NMR; residue Ser 290. The note with it: domain or fragment; Limits are not printed. They are inferred from the C-IDR label position 120, the +9/-9 charge count, and 180 observable HSQC peaks (198 residues minus 17 Pro and the N-terminal residue). The NMR sample was 15N-labelled or unlabelled. The His6-SUMO tag was removed. The smFRET version carries dyes at 120 and 265. Limits are not printed. They are inferred from 109 expected HSQC peaks (119 residues m); modification not given.

B1: Sox2 C-terminal intrinsically disordered region (C-IDR) (protein)
chain: MKKDKYTLPGGLLAPGGNSMASGVGVGAGLGAGVNQRMDSYAHMNGWSNGSYSMMQDQLGYPQHPGLNAHGAAQMQPMHRYDVSALQYNSMTSSQTYMNGSPTYSMSYSQQGTPGMALGSMGSVVKSEASSSPPVVTSSSHSRAPCQAGDLRDMISMYLPGAEVPEPAAPSRLHMSQHYQSGPVPGTAINGTLPLSHM
One may read the Kd as the free concentration of one partner at which half of the binding sites on the other are occupied at equilibrium, for simple one-to-one binding. Take B1: the Kd was determined as 93 µM in assay [1] and 74 µM in assay [2].

Source of the values: article PMC10873366.
